Measurements published in patent publication US11667697.

Legend:
[1] = target: CPXV ortholog of D8 (cowpox virus); experiment: lysate ELISA
[2] = target: MPXV ortholog of D8 (monkeypox virus); experiment: lysate ELISA
[3] = target: CPXV ortholog of D8 (cowpox virus); experiment: cell-based or functional assay
[4] = target: CPXV ortholog of L1 (cowpox virus); experiment: lysate ELISA
[5] = target: VARV ortholog of L1 (variola virus); experiment: purified antigen ELISA
[6] = target: CPXV ortholog of L1 (cowpox virus); experiment: cell-based or functional assay
[7] = target: MPXV ortholog of L1 (monkeypox virus); experiment: cell-based or functional assay
[8] = target: CPXV ortholog of A27 (cowpox virus); experiment: lysate ELISA
[9] = target: MPXV ortholog of the A27 VACV protein (monkeypox virus); experiment: lysate ELISA
[10] = target: MPXV ortholog of the A27 VACV protein (monkeypox virus); experiment: purified antigen ELISA
[11] = target: VARV ortholog of A27 (variola virus); experiment: purified antigen ELISA
[12] = target: MPXV ortholog of the A27 VACV protein (monkeypox virus); experiment: cell-based or functional assay
[13] = target: MPXV ortholog of A33 (monkeypox virus); experiment: lysate ELISA
[14] = target: MPXV ortholog of A33 (monkeypox virus); experiment: cell-based or functional assay

B1: MPXV-27 (antibody, V domains shown)
VH: QVQLQQWGAGLLKPSETLSLTCDVYGGSFSGYYWSWIRQPPGKGLEWIGEINHSGSTTYTPSLRSRVTISVDTSKNQFSLKLSSVTAADTAVYYCARVLSGWLPFPNYYYYMDVWGKGTTVT
VL: DIQMTQSPSSLPASVGDRVTITCRASQDIRNNLGWYQQKPGKAPERLIYGTSNLQSGVPSRFSGSGSGTEFTLTISSLQPEDFATYYCLQHNSYPPTFGRGTKVEIK
EC50 [1]: 0.02 µg/mL
EC50 [2]: 0.02 µg/mL
PRNT Emax, CPXV MV+C' [3]: 75%
PRNT IC50, CPXV MV+C' [3]: 0.08 µg/mL

B2: MPXV-96 (antibody, V domains shown)
VH: QVQLQQWGAGLLISSETLSLTCGVYGGSFSGYYWTWIRQPPGKGLEWIGEINYVGSTNYNPSLKSRVTMSVDTSKNHFSLSLSSVTAADTAVYYCARGLRGNSVCFDWGPGTLV
VL: ELVMTQSPATLSVSPGERASLSCRASQSVSSNLAWYQQKPGQAPRLLIYGASTRATGLPARFSGSGSGTEFTLTISSLQSEDFAIYYCQQYNNWPRTFGQGTKVDI
EC50 [1]: 0.003 µg/mL
EC50 [2]: 0.001 µg/mL

B3: VACV-33 (antibody, V domains shown)
VH: QLQLQESGPGLVKPSETLSLTCTVSGGSISSGGYYWGWIRQPPGKGLEWIASIYYSGSTYYNPSLKSRVTISVDTSKTQFSLKLSSVTAADTAVYYCARQSSSTGGFHYWGQGTLVTVSS
VL: QSVLTQPPSVSGAPGQRVTISCTGSSSNIGAGYDVHWYQHLPGTAPKLLIYGNSNRPSGVPDRFSGSKSGTSASLAITGLQAEDEANYYCQSYDSSLSGREVFGGGTQLTVL
EC50 [4]: 0.06 µg/mL
EC50 [5]: 0.02 µg/mL
PRNT Emax, CPXV MV [6]: 74%
PRNT Emax, CPXV MV+C' [6]: 75%
PRNT IC50, CPXV MV [6]: 0.5 µg/mL
PRNT IC50, CPXV MV+C' [6]: 0.2 µg/mL
PRNT Emax, MPXV MV [7]: 50%
PRNT IC50, MPXV MV [7]: 70 µg/mL

B4: VACV-304 (antibody, V domains shown)
VH: EVQLVESGGGLVQPGGSLRLSCVVSGFTFSNYWMSWVRQAPGKGLEWVANIKQDGSKKYYVDSVTGRFTISRDNAKNSLYLQMNSLRAEDTAVYYCATLNLELAVDAISEALKWGQGTLVTVSS
VL: SYELTQPPSVSVSPGQTARITCSGDALPKQFAYWYQQKPGQAPVVMIYKDSERPSGIPERFSGSSSGTTVTLTISGVQAEDEADYYCQSVDNSGTYEVFGGGTQLTVL
EC50 [1]: 0.05 µg/mL
EC50 [2]: 0.1 µg/mL
PRNT Emax, CPXV MV+C' [3]: 79%
PRNT IC50, CPXV MV+C' [3]: 0.1 µg/mL

B5: MPXV-61 (antibody, V domains shown)
V domain 1: QVQLVQSGAEVKKPGSSVKVSCKASGETFSRYAFSWVRLAPGQGLEWLGRIIPFIDIPNYAQKFQGRVTITADKSTSTAYMELSSLRSEDTAVYYCASSLPSTYYFGSGNYPWGNWLDPWGQGTLVTVSS
V domain 2: QSVVTQPPSVSAAPGQNVTISCSGSSSNIGNNYVSWYHQLPGTAPKLLIYDNDKRPSGIPDRFSGSKSGTSATLGITGLQTGDEADYYCGTWDSSLSEVVFGGGTQVTVL
EC50 [1]: 0.009 µg/mL
EC50 [2]: 0.004 µg/mL

B6: VACV-117 (antibody, V domains shown)
VH: QVQLVQSGAEVKKPGASVKVSCKASGYTFTSYDINWVRQATGQGLEWLGWMNPNSGNTKSAQKVKGRVTMTRDTSISTAYMELSSLRSEDTAVYYCARTPFDDIGYYYWGQGTLVTVS
VL: DIVMTQSPLSLSVTPGEPASISCRSSQSLLHSNGYNYLDWYLQKPGQSPQLLIYLGSNRASGVPDRFIGSGSGTDFTLKISIVEAEDVGVYYCMQALQTPGAFGPGTKVDIK
EC50 [1]: 0.01 µg/mL
EC50 [2]: > 26 µg/mL

B7: VACV-303 (antibody, V domains shown)
VH: EVQLLESGGGLVQPGGSLRLSCAASGFTFSSYAMSWVRQAPGKGLEWVSAISGTGGNTYYADSVKGRFTISRDKSKNTLYLQMHSLRAEDTAVYYCATSLIWWLQSDYWGQGTLVTVSS
VL: DIQMTQSPSSLSASVGDRVTITCRASQSIASYLIWYQQKPGNAPKLLIYAASSLQSGVPSRFSGSGSGTDFTLTISSLQPEDFATYYCQQSYSTPQTFGQGTKVDIK
EC50 [8]: 0.004 µg/mL
EC50 [9]: 0.004 µg/mL
EC50 [10]: 0.02 µg/mL
EC50 [11]: 0.16 µg/mL
PRNT Emax, MPXV MV [12]: 51%
PRNT Emax, MPXV MV+C' [12]: 64%
PRNT IC50, MPXV MV [12]: 25 µg/mL
PRNT IC50, MPXV MV+C' [12]: 15 µg/mL

B8: VACV-128 (antibody, V domains shown)
VH: EVQLVQSGAEVKKPGATVKISCKVSGYTFTDYYMHWVQQAPGKGLKWMGLLDPLDGETIYSEKFQGKVTITADTSTDTAYMELSSLRSEDTAVYYCARELTGYLNYWGQGTLVTVSS
VL: DIQMTQSPSSLSASVGDRVTITCRASPGICNYLAWYQHKPGKVPKLLIYAASTLQSGVPSRFTGVGSGTNFTLTINNLPPENVATYYCQKYNSAPHTFGQGTKVDIK
EC50 [1]: 0.25 µg/mL
PRNT Emax, CPXV MV+C' [3]: 71%
PRNT IC50, CPXV MV+C' [3]: 0.3 µg/mL

B9: MPXV-26 (antibody, V domains shown)
VH: QVQLVQSGGGLIQPGGSLRLSCVVSGFNVATNYMSWVRQAPGKGLEWVSVIYSGGSTYYADSVKGRFTISRDNSKNTVFLQMNSLRPEDTAAYYCAKGGGLGLDYWGQGTLVTVSS
VL: QSALTQPPSASGSPGQSVTITCTGSSSDVGGYNYVSWYQQHPGKAPKVVIYEVNKRPSGVPHRFSGSKSGNTASLTVSGLQAEDEADYYCSSYAGTETVAFGGGTKLTVL
EC50 [4]: 0.05 µg/mL
EC50 [5]: 0.02 µg/mL
PRNT Emax, CPXV MV [6]: 99%
PRNT Emax, CPXV MV+C' [6]: 93%
PRNT IC50, CPXV MV [6]: 0.07 µg/mL
PRNT IC50, CPXV MV+C' [6]: 0.2 µg/mL
PRNT Emax, MPXV MV [7]: 96%
PRNT Emax, MPXV MV+C' [7]: 97%
PRNT IC50, MPXV MV [7]: 3 µg/mL
PRNT IC50, MPXV MV+C' [7]: 6.2 µg/mL

B10: VACV-136 (antibody, V domains shown)
V domain 1: QVTLKESGPVLVNPTETLTLTCTVSGFSLSNARMRVSWIRQPPGKALEWLAHIFSNDEKSYSTSLKSRLTISKDTSKSQVVLTMTNMDPVDTASYYCARMRGEYNSYYFDSWGQGTLVTVS
V domain 2: SYELTQPPSVSVSPGQTARITCSGDALPNQYAYWYQQKPGQAPVLVIYKDSERPSGIPERFSGSSSGTTVTLTISGVQAEDEADYYCQSADSSGTSVVFGGGTQVTV
EC50 [1]: 0.05 µg/mL
EC50 [2]: 0.04 µg/mL
PRNT Emax, CPXV MV+C' [3]: 75%
PRNT IC50, CPXV MV+C' [3]: 0.2 µg/mL

B11: VACV-8 (antibody, V domains shown)
VH: QVQLQQWGAGLLKPSETLSLTCAGYGGSFSGYFWSWIRQPPGKGLEWIGEINHSGSTDYNPSLKSRVTISLDTSKTQFSLKLSSVTAADTAVYYCARVMTGITNYYYYYGMDVWGQGTTVTF
VL: DIQLTQSPSFLSASVGDRVTITCRASQDISSYLAWYQQKPGKAPKLLIYAASTLQSGVPSRFSGSESGTEFTLTISSLQPENFATYYCQHLNSYPRGYTFGQGTKVDIK
EC50 [1]: 0.1 µg/mL
EC50 [2]: 0.06 µg/mL
PRNT Emax, CPXV MV+C' [3]: 58%
PRNT IC50, CPXV MV+C' [3]: 2 µg/mL

B12: VACV-66 (antibody, V domains shown)
VH: QLQLQESGPGLVKPSETLSLTCTVSGDSISSNNYYWGWIRQPPGKGLEWIGSIYYSGSTYYNPSLKSRVTISVDTSKNQFSLKLSSVTAADTAVYYCARHRRVLLWFGEFQLWGQGTLVTVSS
VL: QSALTQPPSVSGAPGQRVTISCTGSSSNIGAGYDVHWYQQLPGTAPKLLIYGNINRPSGVPDRFSGSKSGTSASLAITGLQAEDEADYYCQSYDSSLSGALFGGGTQLTVL
EC50 [2]: > 0.3 µg/mL

B13: VACV-159 (antibody, V domains shown)
VH: QLQLQESGPGLVKPSETLSLTCTVSGGSISSSSYYWGWIRQPPGKGLEWIGSIYYRGSTYYNPSLKSRITISVDTSKNQFSLKLRSVTAADTAVYYCARHLRVLLWFGELLEWGQGTTVTVSS
VL: QSALTQPPSVSGAPGQRVTISCTGSSSNIGADYDVHWYQQLPGTAPKLLIYGNSNRPSGVPDRFSGSKSGTSASLAITGLQAEDEADYYCQSHDSSLSGYVFGTGTKVTVL
EC50 [1]: > 28 µg/mL
EC50 [2]: > 14 µg/mL

B14: VACV-300 (antibody, V domains shown)
V domain 1: QVQLVQSGAEVKKPGSSVKVSCKASGGTFSSYAISWVRQAPGQGLEWMGGIIPIFGTANYAQKFQGRVTITADESTGTAYMELTSLRSEDTAIYYCARASEQWLASINWFDPWGQGTLVTVSS
V domain 2: QSALTQPASVSGSPGQSITISCTGTSSDVGSYNLVSWYQQHPGKAPKLMIYEVSKRPSGVSNRFSASKSGNTASLTISGLQAEDEADYYCCSYAGSSTLVFGGGTQVTVL
EC50 [8]: 0.06 µg/mL
EC50 [9]: > 0.68 µg/mL
EC50 [10]: 0.14 µg/mL
EC50 [11]: 0.79 µg/mL

B15: MPXV-83 (antibody, V domains shown)
VH: QVQLVESGGGVVQPGRSLRLSCAASGFTFSSYSMHWVRQAPGKGLEWVAVISFDGRSNYYADSVRGRFTISRDNSKKTMYLQMNSLRLADTAVYYCARGGIGAPDPRNGLEVWGRGAPVTLSS
VL: DIQMIQSPSSLSASVGDRVTISCQATQDISNSVNWYQQKPGKAPKLLIYDASTLETGVPSRFSGGGSGTHFTFTISSLQPEDIATYYCQQFHSLPPTFGQGPKGISK
EC50 [4]: 0.03 µg/mL
EC50 [5]: 0.065 µg/mL
PRNT Emax, CPXV MV [6]: 69%
PRNT Emax, CPXV MV+C' [6]: 78%
PRNT IC50, CPXV MV [6]: 0.2 µg/mL
PRNT IC50, CPXV MV+C' [6]: 0.1 µg/mL
PRNT Emax, MPXV MV+C' [7]: 67%
PRNT IC50, MPXV MV+C' [7]: 12.5 µg/mL

B16: VACV-154 (antibody, V domains shown)
VH: EVQLLESGGGLVQPGESLRLSCAASGFTLRNYAMSWVRQTPGKGLEWVSAISGSGGSTYYADSVKGRFTISRDTSKNTLYVQMNSLRAEDTAVYYCAKIRLDSSGYSGAFDIWGQGTRVTVSS
VL: SYELTQPPSVSVSPGQTARITCSGDALPKQYASWYQQKPGQAPVLVIYKDSERPSGIPERFSGSSSGTTVTLTISGVQAEDEADYYCQSADSSGTYPVVFGGGTQLTVL
EC50 [8]: 0.02 µg/mL
EC50 [9]: 0.02 µg/mL
EC50 [10]: 0.06 µg/mL
EC50 [11]: 0.3 µg/mL
PRNT Emax, MPXV MV [12]: 66%
PRNT Emax, MPXV MV+C' [12]: 69%
PRNT IC50, MPXV MV [12]: 15 µg/mL
PRNT IC50, MPXV MV+C' [12]: 14 µg/mL

B17: MPXV-39 (antibody, V domains shown)
VH: QVQLQQWGAGLLKPSETLSLTCAIYGGSLSGQYWSWIRQPPGRGLEWIGEIHHKGRTNYNPSLKSRVTISIDTSQRQFSLRLTSVSAADTAVYYCASGNYRLGQGTLVTF
VL: DVVLTQSPLTLPVTLGQPASISCRSSQSLVYSDGDTYLNWFQQRPGQAPRRLIYKVSKRDFGVPDRFSGSGSGTDFTLRISRVEAEDVGVYYCMQGTHWPRTFGQGTQVDIK
EC50 [13]: > 47 µg/mL
PRNT Emax, MPXV EV+C' [14]: 56%
PRNT IC50, MPXV EV+C' [14]: 100 µg/mL
